In publication PMC6987127 (Nature Communications, 2020):

Experiments:
[1] = target: T1, TrkH-TrkA complex (TrkHA) (Vibrio parahaemolyticus, UniProt Q87KD2); assay: single-channel patch clamp, inside-out patches of E. coli giant spheroplasts; assay type: biochemical; conditions: 150 mM KCl, 10 mM HEPES pH 7.4, same wild-type value also cited to earlier work
T1 construct: gene VP3045; full-length TrkH with C-terminal TEV site and His10; full-length TrkA with N-terminal GST cut by TEV; each made in E. coli BL21(DE3) and mixed; for patch clamp both co-expressed from modified pET vectors in E. coli giant spheroplasts; TrkH dimer with TrkA tetramer; with Trk system potassium uptake protein TrkH
T1 sequence (Q87KD2 1-458): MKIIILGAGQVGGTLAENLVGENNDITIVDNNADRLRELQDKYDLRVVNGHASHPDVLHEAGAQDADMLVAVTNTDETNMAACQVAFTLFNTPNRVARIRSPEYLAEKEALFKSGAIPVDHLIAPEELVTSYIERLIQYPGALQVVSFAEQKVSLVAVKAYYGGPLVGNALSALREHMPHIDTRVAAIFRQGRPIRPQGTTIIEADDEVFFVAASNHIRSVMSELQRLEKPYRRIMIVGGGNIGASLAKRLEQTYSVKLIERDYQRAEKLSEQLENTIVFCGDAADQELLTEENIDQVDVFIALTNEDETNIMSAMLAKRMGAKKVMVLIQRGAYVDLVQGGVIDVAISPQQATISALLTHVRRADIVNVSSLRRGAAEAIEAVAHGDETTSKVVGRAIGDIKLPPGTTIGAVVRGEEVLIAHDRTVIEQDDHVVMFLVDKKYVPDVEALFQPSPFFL
T1 sequence (Q87TN7 1-485 partner): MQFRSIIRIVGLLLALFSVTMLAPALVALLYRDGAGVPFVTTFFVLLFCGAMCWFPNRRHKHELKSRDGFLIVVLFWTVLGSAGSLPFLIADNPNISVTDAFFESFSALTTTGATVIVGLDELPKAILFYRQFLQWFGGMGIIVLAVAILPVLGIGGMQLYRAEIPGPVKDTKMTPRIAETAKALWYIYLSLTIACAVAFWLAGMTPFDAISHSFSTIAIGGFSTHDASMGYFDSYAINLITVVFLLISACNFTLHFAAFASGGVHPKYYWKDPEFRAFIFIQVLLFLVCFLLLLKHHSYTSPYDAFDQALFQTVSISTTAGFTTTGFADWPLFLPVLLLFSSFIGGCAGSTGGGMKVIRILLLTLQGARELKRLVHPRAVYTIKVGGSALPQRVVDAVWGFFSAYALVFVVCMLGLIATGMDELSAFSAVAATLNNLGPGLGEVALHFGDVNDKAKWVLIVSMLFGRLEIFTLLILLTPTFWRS

[2] = target: T1, TrkH-TrkA complex (TrkHA); assay: X-ray crystallography, […] A; assay type: binding; conditions: 10 mM ADP; pH 7.2; 20 °C; site: N2 domain of TrkA only
[3] = target: T1, TrkH-TrkA complex (TrkHA); assay: X-ray crystallography, […] A; assay type: binding; conditions: 10 mM ATPγS; MgCl2 50 mM; pH 7.3; 20 °C; sites: N1 and N2 domains of TrkA
[4] = target: TrkH from Vibrio parahaemolyticus, wild type (Vibrio parahaemolyticus) (UniProt Q87TN7)
[5] = target: TrkA from Vibrio parahaemolyticus, wild type (Vibrio parahaemolyticus); assay: crystal structure; TrkH-TrkA complex crystallised in the presence of 10 mM ATPγS (TrkHA-ATPγS), 3.85 Å; 20 °C, MgCl2 50 mM, NH4H2PO4 50 mM, HEPES pH 7.3, PEG400 20%
[6] = target: TrkA from Vibrio parahaemolyticus, wild type (Vibrio parahaemolyticus); assay: crystal structure; TrkH-TrkA complex crystallised in the presence of 10 mM ADP (TrkHA-ADP), 3.53 Å; 20 °C, magnesium acetate 100 mM, HEPES pH 7.2, PEG400 26%, 2-propanol 10%
[7] = target: TrkA from Vibrio parahaemolyticus, wild type (Vibrio parahaemolyticus); assay: cryo-EM structure; TrkH-TrkA complex frozen on grids in the presence of 10 mM ATP (TrkHA-ATP), overall 3.0 Å; 150 mM KCl, 20 mM HEPES pH 7.5, 5 mM β-mercaptoethanol, 3.5 mM DM
[8] = target: the molecule itself; assay: crystal structure; TrkH-TrkA complex crystallised in the presence of 10 mM ADP (TrkHA-ADP), 3.53 Å; 20 °C, magnesium acetate 100 mM, HEPES pH 7.2, PEG400 26%, 2-propanol 10%

Question: Which “Popen at 5 mM” value ([1]; 5 mM ADP, closes channel) does the source give for `Nc1ncnc2c1ncn2[C@@H]1O[C@H](COP(=O)(O)OP(=O)(O)O)[C@@H](O)[C@H]1O` [ADP] here?
Answer: 0.02 ± 0.002

Question: And the “X-ray crystallography, 3.53 A” value [2]?
Answer: each TrkA has a prominent non-protein density in the N2 domain in which we modeled

Question: Which “Popen at 5 mM” value ([1]; 5 mM ATP, activator) does the source give for `Nc1ncnc2c1ncn2[C@@H]1O[C@H](COP(=O)(O)OP(=O)(O)OP(=O)(O)O)[C@@H](O)[C@H]1O` [ATP] here?
Answer: 0.87 ± 0.003

Question: For `Nc1ncnc2c1ncn2[C@@H]1O[C@H](COP(=O)(O)OP(=O)(O)OP(O)(O)=S)[C@@H](O)[C@H]1O` [ATPγS], which “X-ray crystallography, 3.85 A” value [3] is on record?
Answer: ATPγS is found in both the N1 and N2 domains

Question: How did the single-channel open probability (Popen) of TrkHA wt, inside-out patches of E. coli spheroplasts, in ADP [4] turn out when “TrkA from Vibrio parahaemolyticus, wild type (natural protein)” was run?
Answer: 0.02

Question: What about the single-channel open probability (Popen) of TrkHA wt, inside-out patches of E. coli spheroplasts, in ATP [4] of the same molecule?
Answer: 0.87

Question: What about the single-channel open probability (Popen) of TrkHA wt, inside-out patches of E. coli spheroplasts, no ligand [4] of the same molecule?
Answer: 0.17

Question: And the stoichiometry N [5]?
Answer: 4

Question: What about the stoichiometry N [6] of the same molecule?
Answer: 4

Question: And the stoichiometry N [7]?
Answer: 2

B1: TrkH from Vibrio parahaemolyticus, wild type (natural protein, UniProt Q87TN7 1-485, looked up)
chain: MQFRSIIRIVGLLLALFSVTMLAPALVALLYRDGAGVPFVTTFFVLLFCGAMCWFPNRRHKHELKSRDGFLIVVLFWTVLGSAGSLPFLIADNPNISVTDAFFESFSALTTTGATVIVGLDELPKAILFYRQFLQWFGGMGIIVLAVAILPVLGIGGMQLYRAEIPGPVKDTKMTPRIAETAKALWYIYLSLTIACAVAFWLAGMTPFDAISHSFSTIAIGGFSTHDASMGYFDSYAINLITVVFLLISACNFTLHFAAFASGGVHPKYYWKDPEFRAFIFIQVLLFLVCFLLLLKHHSYTSPYDAFDQALFQTVSISTTAGFTTTGFADWPLFLPVLLLFSSFIGGCAGSTGGGMKVIRILLLTLQGARELKRLVHPRAVYTIKVGGSALPQRVVDAVWGFFSAYALVFVVCMLGLIATGMDELSAFSAVAATLNNLGPGLGEVALHFGDVNDKAKWVLIVSMLFGRLEIFTLLILLTPTFWRS
notes: TrkH, Vibrio parahaemolyticus, full-length gene in a modified pET vector; TEV protease site followed by a 10-polyhistidine tag at the C terminus; printed residue numbers run to 485; Homodimer in all three structures; also called TrkH (wt)
Question: Which “stoichiometry N” value [8] does the source give for B1 here?
Answer: 2
